B1: WEE1 (parent)
chain: INPFTPDSLLLHSSGQCRRRKRTY

We go through 94 variants from the supplement of paper PMC10567573.
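Also: lentivirally expressed fusions sorted by FACS into six bins by GFP to DsRed ratio, PSI derived from sequencing read proportions per bin multiplied by bin number.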

Variants of B1 are the subject of this series. The series can be described thus: protein stability index of a GFP-peptide fusion (GPS, HEK-293T) (PSI 1-6); higher = more stable. The following applies: c terminus: a fixed tail appended.
Consider INPFTPDSLLLTSSGQCRRRKRTY, for which the protein stability index came to 3.45.

Turning to INPFTPDSLLLHSSGLCRRRKRTY, the protein stability index came out at 2.81. Then INPFTPDSLLLHSSGICRRRKRTY, with 3.56; and INPFTPDSLLLHSSGDCRRRKRTY, with 3.45. With INPFTPDSLLLHSSGTCRRRKRTY, the protein stability index worked out at 3.41. The result for INPFTPDSLLLHSSGKCRRRKRTY reads 3.69; that for INPFTPDSLLLHSSGGCRRRKRTY, 3.5; that for INPFTPDSLLLHSSGHCRRRKRTY, 3.06. Then INPFTPDSLLLHSSGVCRRRKRTY, with 2.97; and INPFTPDSLLLHSSGYCRRRKRTY, with 3.52. The result for INPFTPDSLLLHSSGECRRRKRTY reads 3.69. On to INPFTPDSLLLHSSGQCRRRKRSY, for which the protein stability index is 3.93. With INPFTPDSLLLHSSGQCRRRKRCY, the protein stability index is 2.7. In the case of INPFTPDSLLLHSSGQCRRRKRHY, the protein stability index was found to be 3.7.

Turning to INPFTPDSLLLHSSGQCRRRKRMY, the protein stability index turned out to be 3.6.

Regarding INPFTPDSLLLHSSGQCRRRKRWY, the protein stability index is 2.79. For INPFTPDSLLLHSSGQCRRRKRQY, the protein stability index was 3.42. The result for INPFTPDSLLLHSSGQCRRRKRLY reads 3.5; that for INPFTPDSLLLHSSGQVRRRKRTY, 3.22; that for INPFTPDSLLLHSSGQYRRRKRTY, 3.04. The result for INPFTPDSLLLHSSGQTRRRKRTY reads 4.03. In the case of INPFTPDSLLLHSSGQMRRRKRTY, the protein stability index is 4.1. Turning to INPFTPDSLLLHSSGQERRRKRTY, the protein stability index was determined as 4.09. The result for INPFTPDSLLLHSSGQARRRKRTY reads 3.64. Then INPFTPDSLLLHSSGQNRRRKRTY, with 3.85; and INPFTPDSLLLHSSGQPRRRKRTY, with 4.37. The result for INPFTPDSYLLHSSGQCRRRKRTY reads 2.63. For INPFTPDSVLLHSSGQCRRRKRTY, the protein stability index turned out to be 3.76. With INPFTPDSFLLHSSGQCRRRKRTY, the protein stability index came out at 2.94. For INPFTPDSALLHSSGQCRRRKRTY, the protein stability index turned out to be 3.61. Take INPFTPDSILLHSSGQCRRRKRTY: the protein stability index amounted to 3.25.

Regarding INPFTPDSNLLHSSGQCRRRKRTY, the protein stability index turned out to be 3.83.

Regarding INPFTPDSMLLHSSGQCRRRKRTY, the protein stability index came out at 3.35.

Take INPFTPDSWLLHSSGQCRRRKRTY: the protein stability index was 3.32. In the case of INPFTPDSSLLHSSGQCRRRKRTY, the protein stability index amounted to 4.06. Then INPFTPDSCLLHSSGQCRRRKRTY, with 3.35; and YNPFTPDSLLLHSSGQCRRRKRTY, with 3.05. Take FNPFTPDSLLLHSSGQCRRRKRTY: the protein stability index is 2.73. Take LNPFTPDSLLLHSSGQCRRRKRTY: the protein stability index was 3.19.

Consider NNPFTPDSLLLHSSGQCRRRKRTY, for which the protein stability index is 4.17. Take PNPFTPDSLLLHSSGQCRRRKRTY: the protein stability index came to 4.36. Turning to HNPFTPDSLLLHSSGQCRRRKRTY, the protein stability index was determined as 3.89. Take INPFTPDSLLLHSSKQCRRRKRTY: the protein stability index was found to be 3.85. Turning to INPFTPDSLLLHSSVQCRRRKRTY, the protein stability index is 2.79. The result for INPFTPDSLLLHSSEQCRRRKRTY reads 3.41.

For INPFTPDSLLLHSSQQCRRRKRTY, the protein stability index came out at 3.72. Then INPFTPDSLLLHSSSQCRRRKRTY, with 3.02; and INPFTPDSLLLHSSWQCRRRKRTY, with 2.54; and INPFTPDSLLLHSSHQCRRRKRTY, with 2.72. Take INPFTPDSLLLHSSLQCRRRKRTY: the protein stability index was 3.56. Then INPFTPDSLLLHSSNQCRRRKRTY, with 3.89; and INPFTPDSLLLHSSGQCRRVKRTY, with 2.94; and INPFTPDSLLLHSSGQCRRQKRTY, with 2.81. The result for INPFTPDSLLLHSSGQCRREKRTY reads 3.15.

For INPFTPDSLLLHSSGQCRRIKRTY, the protein stability index stood at 2.95. Take IFPFTPDSLLLHSSGQCRRRKRTY: the protein stability index was determined as 2.35. Then ICPFTPDSLLLHSSGQCRRRKRTY, with 3.69.

On to IPPFTPDSLLLHSSGQCRRRKRTY, for which the protein stability index worked out at 3.29.

Regarding INSFTPDSLLLHSSGQCRRRKRTY, the protein stability index stood at 3.51. On to INCFTPDSLLLHSSGQCRRRKRTY, for which the protein stability index was 3.41. The result for INMFTPDSLLLHSSGQCRRRKRTY reads 2.99. With INVFTPDSLLLHSSGQCRRRKRTY, the protein stability index was 2.71. Consider INIFTPDSLLLHSSGQCRRRKRTY, for which the protein stability index turned out to be 2.69. As to INYFTPDSLLLHSSGQCRRRKRTY, the protein stability index amounted to 2.38. The result for INAFTPDSLLLHSSGQCRRRKRTY reads 3.21; that for INRFTPDSLLLHSSGQCRRRKRTY, 3.4. With INQFTPDSLLLHSSGQCRRRKRTY, the protein stability index came to 3.35. As to INNFTPDSLLLHSSGQCRRRKRTY, the protein stability index amounted to 3.12. With INFFTPDSLLLHSSGQCRRRKRTY, the protein stability index was determined as 2.33.

With INPFTPDSLLLHSQGQCRRRKRTY, the protein stability index was 3.89. As to INPFTPDSLLLHSDGQCRRRKRTY, the protein stability index was found to be 3.94. With INPFTPDSLLLHSMGQCRRRKRTY, the protein stability index was determined as 2.42.

Consider INPFTPDSLLLHSNGQCRRRKRTY, for which the protein stability index was 3.61. The result for INPFTPDSLLLHSRGQCRRRKRTY reads 3.81; that for INPFTPDSLLLHSHGQCRRRKRTY, 2.93. On to INPFTPDSLLLHSPGQCRRRKRTY, for which the protein stability index worked out at 3.54.

Take INPFTPDSLLLHSSGQCRRRVRTY: the protein stability index amounted to 3.16. Then INPFTPDSLLLHSSGQCRRRGRTY, with 3.58. The result for INPFTPDSLLLHSSGQCRRRRRTY reads 3.11; that for INPFTPDSLLLHSSGQCRRRTRTY, 2.83; that for INPFTPDSLLLHSSGQCRRRMRTY, 3.25.

With INPFTPDSLLLHSSGQCRRRHRTY, the protein stability index came to 3.38. In the case of INPFTPDSLLLHSSGQCRRRWRTY, the protein stability index was 2.4.

For INPFTPDSLLLHSSGQCRRRLRTY, the protein stability index turned out to be 2.72.

On to INPFTPDSLLLHSSGQCRRRCRTY, for which the protein stability index stood at 2.02. Regarding INPFWPDSLLLHSSGQCRRRKRTY, the protein stability index was found to be 2.51. Turning to INPFIPDSLLLHSSGQCRRRKRTY, the protein stability index came to 2.48. Turning to INPFYPDSLLLHSSGQCRRRKRTY, the protein stability index is 2.93. On to INPFLPDSLLLHSSGQCRRRKRTY, for which the protein stability index was found to be 3.04. The result for INPFNPDSLLLHSSGQCRRRKRTY reads 3.24; that for INPFDPDSLLLHSSGQCRRRKRTY, 4.01.

Take INPFMPDSLLLHSSGQCRRRKRTY: the protein stability index amounted to 2.89. Take INPFHPDSLLLHSSGQCRRRKRTY: the protein stability index is 3.33.

As for INPFVPDSLLLHSSGQCRRRKRTY, the protein stability index is 3.71.
